Reference: patent CN111662379A (JIANGSU DISEASE CONTROL AND PREVENTION CENTER JIANGSU …, dated 2020)

What was measured:
[1] = target: 重组SARS-CoV-2刺突蛋白胞外区 (extra cellular domain of spike protein, S-ECD) (SARS-CoV-2, UniProt P0DTC2 14-1213); experiment: SPR, Biacore 8K, S-ECD immobilised on a CM5 chip, antibody injected at 125nM~7.8nM
[2] = target: 重组SARS-CoV-2刺突蛋白胞外区 (extra cellular domain of spike protein, S-ECD) (SARS-CoV-2, UniProt P0DTC2 14-1213); experiment: as above; remark: listed apart in the source
[3] = target: SARS-CoV-2 S蛋白 (on live virus, 江苏分离株 BetaCoV/JS03/human/2020) (SARS-CoV-2, UniProt P0DTC2 14-1273); experiment: cell-based or functional assay

B1: FC08 (antibody, V domains shown)
VH: VQLLQQSGAEVKKPGSSVKVSCKASGGTFSSYAISWVRQAPGQGLEWMGGIIPILGIANYAQKFQGRVTITADKSTSTAYMELSSLRSEDTAVYYCVRERGYSGYGAAYYFDYWGQGTLVTVSS
VL: QSVLTQPPSVSGAPGQRVTISCTGSSSNIGAGYDVHWYQQLPGTAPKLLIYGNSNRPSGVPDRFSGSKSGTSASLAITGLQAEDEADYYCQSYDSSLSGSVFGGGTKLTVL
B1 showed a Kd [1] of 0.8 nM.

B2: FC11 (antibody, V domains shown)
VH: EVQLLESGGGVVQPGRSLRLSCAASGFTFSYYGMHWVRQAPGTGLEWVAVISYDGSNEYYADSVKGRFTISRDNSKNTLYLQMNSLRAEDTAVYYCAKAMFLGDSSGLTGLDMDVWGQGTTVTVSS
VL: DIELTQSPGTLSLSPGERATLSCRASQSVSSYLAWYQQKPGQAPRLLIYDASNRATGIPARFSGSGSGTDFTLTISSLEPEDFALYYCQQRGNWPPTFGGGTKLEIK
notes: also called FC11抗体
B2 was tested, and the Kd [2] was 0.5 nM.

B3: FC05 (antibody, V domains shown)
VH: VQLLEQSGAEVKKPGASVRVSCKVSGYTLPEVAMHWVRQAPGKGLEWMGGFDPEDGETIYAQKFQGRVTMTEDTSTDTAYMELSSLRSEDTAVYYCATTTPFSSSFWFDPWGQGTLVTVSS
VL: QSVLTQAPSVSGAPGQKVTISCSGSSSNIGNNYVSWYQQLPGTAPKLLIYDNNKRPSGIPDRFSGSKSGTSATLGITGLQTGDEADYYCGTWDSSLSAVVFGGGTKLTVL
For B3, the “IC50 (体外中和实验, live SARS-CoV-2 on Vero E6 cells, cytopathic effect)” value [3] was 0.142 µg/mL.
